“And” between values parts separate entries of the source, which are not always exact repeats. Equal values may be shown once. Each block holds one binder with its values, some of them ahead of it.
How the values were obtained:
[1] = molecular target: T1, human MMP9 (human, UniProt P14780 20-707, limits assumed); assay: SPR
T1 construct: also called ヒトMMP9; matrix metalloproteinase-9

[2] = molecular target: T1, human MMP9; assay: ELISA
[3] = molecular target: T2, cynomolgus monkey MMP9 (cynomolgus monkey, UniProt A0A2K5UU71 20-706); assay: ELISA
T2 construct: also called カニクイザルMMP9; recombinant cynomolgus MMP9
T2 sequence (A0A2K5UU71 entry or part of it): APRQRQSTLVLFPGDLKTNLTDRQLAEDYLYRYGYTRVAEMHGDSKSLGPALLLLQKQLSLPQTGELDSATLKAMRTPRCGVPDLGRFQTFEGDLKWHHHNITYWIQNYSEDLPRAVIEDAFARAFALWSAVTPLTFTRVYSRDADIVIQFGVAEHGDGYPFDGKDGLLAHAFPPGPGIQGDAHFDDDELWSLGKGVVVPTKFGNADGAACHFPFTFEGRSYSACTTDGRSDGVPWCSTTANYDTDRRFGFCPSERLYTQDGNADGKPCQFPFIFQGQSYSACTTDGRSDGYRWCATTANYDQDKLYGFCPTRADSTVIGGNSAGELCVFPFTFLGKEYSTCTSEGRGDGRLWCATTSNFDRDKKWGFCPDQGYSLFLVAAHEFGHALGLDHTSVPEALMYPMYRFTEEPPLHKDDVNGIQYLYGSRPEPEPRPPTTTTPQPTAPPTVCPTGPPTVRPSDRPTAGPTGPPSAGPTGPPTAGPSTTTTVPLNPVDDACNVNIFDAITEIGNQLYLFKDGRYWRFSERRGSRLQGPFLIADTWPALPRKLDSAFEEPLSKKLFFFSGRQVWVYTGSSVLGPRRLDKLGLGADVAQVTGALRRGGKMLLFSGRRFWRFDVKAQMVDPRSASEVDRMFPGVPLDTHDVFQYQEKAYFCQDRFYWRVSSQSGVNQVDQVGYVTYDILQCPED

[4] = molecular target: T3, rat MMP9 (rat, UniProt P50282 20-708, limits assumed); assay: ELISA
T3 construct: also called ラットMMP9; recombinant rat MMP9
T3 sequence (P50282 20-708 limits assumed): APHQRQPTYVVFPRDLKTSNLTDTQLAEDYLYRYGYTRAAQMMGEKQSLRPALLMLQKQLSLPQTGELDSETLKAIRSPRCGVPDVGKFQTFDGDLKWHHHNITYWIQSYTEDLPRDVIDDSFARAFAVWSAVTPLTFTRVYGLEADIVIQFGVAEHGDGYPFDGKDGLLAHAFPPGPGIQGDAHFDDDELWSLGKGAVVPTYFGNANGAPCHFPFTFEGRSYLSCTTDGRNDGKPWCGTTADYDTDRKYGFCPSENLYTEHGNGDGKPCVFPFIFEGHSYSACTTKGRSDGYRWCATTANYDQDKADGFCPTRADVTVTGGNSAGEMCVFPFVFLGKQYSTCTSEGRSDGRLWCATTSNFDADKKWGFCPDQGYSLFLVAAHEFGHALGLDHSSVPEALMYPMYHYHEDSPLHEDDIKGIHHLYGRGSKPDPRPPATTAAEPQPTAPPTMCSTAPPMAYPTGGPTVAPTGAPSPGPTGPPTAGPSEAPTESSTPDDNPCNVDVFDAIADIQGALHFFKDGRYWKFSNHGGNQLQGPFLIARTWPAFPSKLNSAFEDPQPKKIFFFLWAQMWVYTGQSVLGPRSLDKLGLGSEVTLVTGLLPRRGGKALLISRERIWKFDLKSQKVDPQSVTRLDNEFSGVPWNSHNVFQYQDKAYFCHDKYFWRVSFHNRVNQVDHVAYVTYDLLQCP

[5] = molecular target: T1, human MMP9; assay: cell-based or functional assay
[6] = molecular target: T1, human MMP9; assay: direct binding assay and SPR
[7] = molecular target: T4, mouse MMP9 (mouse, UniProt P41245 20-730, limits assumed); assay: ELISA
T4 construct: The immunogen for AB0046 was a pro/catalytic domain fragment of mouse MMP9; also called マウスMMP9
T4 sequence (P41245 20-730 limits assumed): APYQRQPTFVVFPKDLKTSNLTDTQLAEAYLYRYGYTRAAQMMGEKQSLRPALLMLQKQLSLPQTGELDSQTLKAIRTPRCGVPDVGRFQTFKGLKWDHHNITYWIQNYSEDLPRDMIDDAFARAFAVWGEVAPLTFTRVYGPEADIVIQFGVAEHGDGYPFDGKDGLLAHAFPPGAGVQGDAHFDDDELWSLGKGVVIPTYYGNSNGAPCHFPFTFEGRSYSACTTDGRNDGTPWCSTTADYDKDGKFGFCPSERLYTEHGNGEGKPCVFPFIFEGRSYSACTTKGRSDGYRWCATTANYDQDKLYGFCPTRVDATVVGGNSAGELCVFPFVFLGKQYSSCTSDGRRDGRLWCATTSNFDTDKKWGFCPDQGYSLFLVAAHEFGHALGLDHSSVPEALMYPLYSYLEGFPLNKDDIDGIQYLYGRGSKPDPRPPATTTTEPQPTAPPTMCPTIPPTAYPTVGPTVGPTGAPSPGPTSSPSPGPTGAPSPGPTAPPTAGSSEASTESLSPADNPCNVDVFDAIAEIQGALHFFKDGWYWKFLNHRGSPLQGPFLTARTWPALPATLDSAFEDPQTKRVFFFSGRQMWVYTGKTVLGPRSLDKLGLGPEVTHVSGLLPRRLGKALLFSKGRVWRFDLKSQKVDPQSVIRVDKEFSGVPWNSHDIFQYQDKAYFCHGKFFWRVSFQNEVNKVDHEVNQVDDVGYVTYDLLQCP

[8] = molecular target: T4, mouse MMP9; assay: cell-based or functional assay

T1 sequence (P14780 20-707 Q279R/R574P limits assumed): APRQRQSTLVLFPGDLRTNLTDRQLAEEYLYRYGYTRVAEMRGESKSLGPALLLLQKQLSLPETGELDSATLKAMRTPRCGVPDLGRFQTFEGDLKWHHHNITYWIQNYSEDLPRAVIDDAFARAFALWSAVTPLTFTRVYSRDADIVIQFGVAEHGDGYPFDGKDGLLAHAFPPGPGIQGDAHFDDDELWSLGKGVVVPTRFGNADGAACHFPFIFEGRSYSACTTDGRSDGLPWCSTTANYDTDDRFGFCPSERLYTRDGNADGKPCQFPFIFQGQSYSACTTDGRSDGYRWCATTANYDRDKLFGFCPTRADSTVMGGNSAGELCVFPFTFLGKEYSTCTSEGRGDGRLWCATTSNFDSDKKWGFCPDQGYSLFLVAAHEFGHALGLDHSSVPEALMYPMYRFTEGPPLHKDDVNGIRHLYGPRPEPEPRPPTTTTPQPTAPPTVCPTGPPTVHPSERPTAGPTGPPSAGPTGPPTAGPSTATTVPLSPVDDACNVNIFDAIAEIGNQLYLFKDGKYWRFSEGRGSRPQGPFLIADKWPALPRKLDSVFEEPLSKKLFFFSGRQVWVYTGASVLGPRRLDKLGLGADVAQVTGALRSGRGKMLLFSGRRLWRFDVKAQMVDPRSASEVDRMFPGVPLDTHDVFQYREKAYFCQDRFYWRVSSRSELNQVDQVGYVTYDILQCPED

Kd [1]: 0.0088 nM | Kd [2]: < 0.4 nM and 0.168 nM | Kd [3]: < 0.4 nM | Kd [4]: < 0.4 nM | IC50, MMP9-mediated cleavage of fluorogenic peptide substrate Mca-PLGL-Dpa-AR-NH2 [5]: 0.691 nM | IC50, MMP9 enzyme assay under steady state [5]: 0.148 nM and 0.161 nM and 0.158 nM | Kd [6]: ~0.001 nM
B1: AB0045 (antibody, V domains shown)
VH: QVQLQESGPGLVKPSETLSLTCTVSGFSLLSYGVHWVRQPPGKGLEWLGVIWTGGTTNYNSALMSRFTISKDDSKNTVYLKMNSLKTEDTAIYYCARYYYGMDYWGQGTLVTVSS
VL: DIQMTQSPSSLSASVGDRVTITCKASQDVRNTVAWYQQKPGKAPKLLIYSSSYRNTGVPDRFSGSGSGTDFTLTISSLQAEDVAVYYCQQHYITPYTFGGGTKVEIKR
notes: Humanized, modified human IgG4 (S241P) / kappa; also called AB0045; humanized variant anti-MMP9 antibody

Kd [7]: 0.218 nM | IC50, MMP9-mediated cleavage of fluorogenic peptide substrate Mca-PLGL-Dpa-AR-NH2 [8]: 0.352 nM
B2: AB0046 (antibody, V domains shown)
VH: QVQLQQPGSVLVRPGASVKLSCTASGYTFTSYWMNWVKQRPGQGLEWIGEIYPISGRTNYNEKFKVKATLTVDTSSSTAYMDLNSLTSEDSAVYYCARSRANWDDYWGQGTTLTVSS
VL: DIQMTQTTSSLSASLGDRVTISCSASQGISNYLNWYQQKPDGTFKLLIYYTSILHSGVPSRFSGSGSGTDYSLTISNLEPEDIATYYCQQYGWLPRTFGGGTKLEIKR
notes: Mouse IgG1 / kappa; also called AB0046; anti-mouse MMP9 antibody

Kd [1]: 0.0004 nM | Kd [3]: < 0.4 nM | Kd [4]: < 0.4 nM | IC50, MMP9-mediated cleavage of fluorogenic peptide substrate Mca-PLGL-Dpa-AR-NH2 [5]: 0.569 nM
B3: AB0041 (antibody, V domains shown)
VH: QVQLKESGPGLVAPSQSLSITCTVSGFSLLSYGVHWVRQPPGKGLEWLGVIWTGGTTNYNSALMSRLSISKDDSKSQVFLKMNSLQTDDTAIYYCARYYYGMDYWGQGTSVTVSS
VL: DIVMTQSHKFMSTSVGDRVSITCKASQDVRNTVAWYQQKTGQSPKLLIYSSSYRNTGVPDRFTGSGSGTDFTFTISSVQAEDLAVYFCQQHYITPYTFGGGTKLEIKR
